Data as given in publication PMC9482650, “Quantitative fragmentomics allow affinity mapping of interactomes” (Nature Communications, 2022).

These binders were tested against T1, RADIL, Q96JH8 (assay: holdup assay). Details: plain residues with an end cap or a label only (N-terminal biotin on a linker: ado-ado).
T1 sequence (Q96JH8 971-1071, limits assumed, looked up): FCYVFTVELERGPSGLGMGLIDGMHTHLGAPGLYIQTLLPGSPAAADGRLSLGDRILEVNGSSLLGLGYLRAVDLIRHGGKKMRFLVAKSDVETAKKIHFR
Parameters: key: below the threshold = too weak to quantify, mostly under pKd 3.1 to 4
For NRVDSKETEC [ADAM17, P78536], the pKd was “below the threshold”.
Work on LDKESFLTWL [YAP1, P46937] yielded a pKd of 5.51.

These binders were tested against SCRIB_2, Q14160 (assay: holdup assay). Details: plain residues with an end cap or a label only (N-terminal biotin on a linker: ado-ado).
Sequence of SCRIB_2, Q14160 (Q14160 857-960): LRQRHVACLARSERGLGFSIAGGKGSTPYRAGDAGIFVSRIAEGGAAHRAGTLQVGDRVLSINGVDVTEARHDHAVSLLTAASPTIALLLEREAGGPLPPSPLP
Parameters: key: below the threshold = too weak to quantify, mostly under pKd 3.1 to 4
NRVDSKETEC [ADAM17, P78536] was tested, and the pKd was “below the threshold”.
For LDKESFLTWL [YAP1, P46937], the pKd was “below the threshold”.

These binders were tested against DLG1_3, Q12959 (assay: holdup assay). Details: plain residues with an end cap or a label only (N-terminal biotin on a linker: ado-ado).
Sequence of DLG1_3, Q12959 (Q12959 457-571): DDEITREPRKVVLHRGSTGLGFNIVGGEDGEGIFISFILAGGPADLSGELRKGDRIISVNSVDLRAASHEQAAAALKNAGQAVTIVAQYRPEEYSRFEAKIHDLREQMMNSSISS
Parameters: key: below the threshold = too weak to quantify, mostly under pKd 3.1 to 4
Binder NRVDSKETEC [ADAM17, P78536] has a pKd of 3.71.
LDKESFLTWL [YAP1, P46937] was tested, and the pKd was “below the threshold”.

The binders below were run against MAGI2_4, Q86UL8 (assay: holdup assay). Details: plain residues with an end cap or a label only (N-terminal biotin on a linker: ado-ado).
Sequence of MAGI2_4, Q86UL8 (Q86UL8 772-865): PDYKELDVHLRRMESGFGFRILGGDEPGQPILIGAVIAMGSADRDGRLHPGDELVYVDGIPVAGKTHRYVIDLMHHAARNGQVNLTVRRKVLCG
Parameters: key: below the threshold = too weak to quantify, mostly under pKd 3.1 to 4
NRVDSKETEC [ADAM17, P78536] was tested, and the pKd was 3.53.
LDKESFLTWL [YAP1, P46937] gave a pKd of 3.94.

The binders below were run against FRMPD2_2, Q68DX3 (assay: holdup assay). Details: plain residues with an end cap or a label only (N-terminal biotin on a linker: ado-ado).
Sequence of FRMPD2_2, Q68DX3 (Q68DX3 944-1038): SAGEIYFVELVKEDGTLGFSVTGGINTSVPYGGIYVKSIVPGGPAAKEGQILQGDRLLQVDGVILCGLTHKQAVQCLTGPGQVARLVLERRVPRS
Parameters: key: below the threshold = too weak to quantify, mostly under pKd 3.1 to 4
For NRVDSKETEC [ADAM17, P78536], the pKd was “below the threshold”.
Work on LDKESFLTWL [YAP1, P46937] yielded a pKd of 4.27.

Each binder was assayed against T2, DLG3_2, Q92796 (assay: holdup assay). Details: plain residues with an end cap or a label only (N-terminal biotin on a linker: ado-ado).
T2 sequence (Q92796 221-321, limits assumed, looked up): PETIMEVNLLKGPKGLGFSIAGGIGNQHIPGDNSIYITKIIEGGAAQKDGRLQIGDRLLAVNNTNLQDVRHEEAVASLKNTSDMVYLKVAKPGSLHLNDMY
Parameters: key: below the threshold = too weak to quantify, mostly under pKd 3.1 to 4
Binder NRVDSKETEC [ADAM17, P78536] has a pKd of 4.67.
LDKESFLTWL [YAP1, P46937] was tested, and the pKd was “below the threshold”.

The binders below were run against FRMPD2_3, Q68DX3 (assay: holdup assay). Details: plain residues with an end cap or a label only (N-terminal biotin on a linker: ado-ado).
Sequence of FRMPD2_3, Q68DX3 (Q68DX3 1073-1166): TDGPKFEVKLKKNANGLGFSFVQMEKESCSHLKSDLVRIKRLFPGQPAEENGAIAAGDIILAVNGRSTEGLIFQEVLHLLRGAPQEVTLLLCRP
Parameters: key: below the threshold = too weak to quantify, mostly under pKd 3.1 to 4
In the case of NRVDSKETEC [ADAM17, P78536], the pKd is reported as “below the threshold”.
For LDKESFLTWL [YAP1, P46937], the pKd was “below the threshold”.

What follows are binders tested against TJP1_3, Q07157 (assay: holdup assay). Details: plain residues with an end cap or a label only (N-terminal biotin on a linker: ado-ado).
Sequence of TJP1_3, Q07157 (Q07157 416-512): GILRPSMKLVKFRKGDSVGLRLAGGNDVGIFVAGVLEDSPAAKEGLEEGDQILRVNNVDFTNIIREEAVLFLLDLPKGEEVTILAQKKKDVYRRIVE
Parameters: key: below the threshold = too weak to quantify, mostly under pKd 3.1 to 4
With NRVDSKETEC [ADAM17, P78536] the pKd was “below the threshold”.
In the case of LDKESFLTWL [YAP1, P46937], the pKd is reported as “below the threshold”.

These binders were tested against T3, SNTG2, Q9NY99 (assay: holdup assay). Details: plain residues with an end cap or a label only (N-terminal biotin on a linker: ado-ado).
T3 sequence (Q9NY99 68-166, limits assumed, looked up): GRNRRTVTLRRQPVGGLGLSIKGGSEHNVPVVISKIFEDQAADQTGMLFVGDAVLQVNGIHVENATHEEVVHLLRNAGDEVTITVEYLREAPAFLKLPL
Parameters: key: below the threshold = too weak to quantify, mostly under pKd 3.1 to 4
For NRVDSKETEC [ADAM17, P78536], the pKd was 4.06.
For LDKESFLTWL [YAP1, P46937], the pKd was “below the threshold”.

The binders below were run against AHNAK1, Q09666 (assay: holdup assay). Details: plain residues with an end cap or a label only (N-terminal biotin on a linker: ado-ado).
Sequence of AHNAK1, Q09666 (Q09666 4-100): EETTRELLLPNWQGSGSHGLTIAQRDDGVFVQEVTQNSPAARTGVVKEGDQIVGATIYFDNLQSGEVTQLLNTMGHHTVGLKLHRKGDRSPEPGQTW
Parameters: key: below the threshold = too weak to quantify, mostly under pKd 3.1 to 4
For NRVDSKETEC [ADAM17, P78536], the pKd was “below the threshold”.
With LDKESFLTWL [YAP1, P46937] the pKd was “below the threshold”.

Each binder was assayed against LNX1_2, Q8TBB1 (assay: holdup assay). Details: plain residues with an end cap or a label only (N-terminal biotin on a linker: ado-ado).
Sequence of LNX1_2, Q8TBB1 (Q8TBB1 371-470): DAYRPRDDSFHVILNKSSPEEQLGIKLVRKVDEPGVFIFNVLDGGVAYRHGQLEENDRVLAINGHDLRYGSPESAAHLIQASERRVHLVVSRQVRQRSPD
Parameters: key: below the threshold = too weak to quantify, mostly under pKd 3.1 to 4
With NRVDSKETEC [ADAM17, P78536] the pKd was “below the threshold”.
With LDKESFLTWL [YAP1, P46937] the pKd was “below the threshold”.

What follows are binders tested against LIMK2, P53671 (assay: holdup assay). Details: plain residues with an end cap or a label only (N-terminal biotin on a linker: ado-ado).
Sequence of LIMK2, P53671 (P53671 143-248): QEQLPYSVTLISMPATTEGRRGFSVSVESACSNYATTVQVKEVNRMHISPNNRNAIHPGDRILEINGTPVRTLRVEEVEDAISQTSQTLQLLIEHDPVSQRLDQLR
Parameters: key: below the threshold = too weak to quantify, mostly under pKd 3.1 to 4
NRVDSKETEC [ADAM17, P78536] gave a pKd of 3.48.
For LDKESFLTWL [YAP1, P46937], the pKd was “below the threshold”.

These binders were tested against T4, DFNB31_1, Q9P202 (assay: holdup assay). Details: plain residues with an end cap or a label only (N-terminal biotin on a linker: ado-ado).
T4 sequence (Q9P202 135-233, limits assumed, looked up): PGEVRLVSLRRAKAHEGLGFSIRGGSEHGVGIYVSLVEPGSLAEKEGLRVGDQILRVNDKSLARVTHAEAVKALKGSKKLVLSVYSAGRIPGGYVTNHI
Parameters: key: below the threshold = too weak to quantify, mostly under pKd 3.1 to 4
NRVDSKETEC [ADAM17, P78536] gave a pKd of 3.72.
LDKESFLTWL [YAP1, P46937] gave a pKd of 3.77.

Each binder was assayed against T5, LIN7A, O14910 (assay: holdup assay). Details: plain residues with an end cap or a label only (N-terminal biotin on a linker: ado-ado).
T5 sequence (O14910 103-200, limits assumed, looked up): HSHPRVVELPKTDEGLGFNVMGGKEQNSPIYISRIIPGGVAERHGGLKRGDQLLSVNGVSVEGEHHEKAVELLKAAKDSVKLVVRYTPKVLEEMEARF
Parameters: key: below the threshold = too weak to quantify, mostly under pKd 3.1 to 4
For NRVDSKETEC [ADAM17, P78536], the pKd was “below the threshold”.
LDKESFLTWL [YAP1, P46937] was tested, and the pKd was “below the threshold”.

The binders below were run against Inadl_3, Q8NI35 (assay: holdup assay). Details: plain residues with an end cap or a label only (N-terminal biotin on a linker: ado-ado).
Sequence of Inadl_3, Q8NI35 (Q8NI35 359-469): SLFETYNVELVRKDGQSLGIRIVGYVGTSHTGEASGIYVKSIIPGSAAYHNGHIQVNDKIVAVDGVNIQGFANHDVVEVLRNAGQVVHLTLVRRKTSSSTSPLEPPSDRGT
Parameters: key: below the threshold = too weak to quantify, mostly under pKd 3.1 to 4
NRVDSKETEC [ADAM17, P78536] was tested, and the pKd was “below the threshold”.
Work on LDKESFLTWL [YAP1, P46937] yielded a pKd of 4.38.

These binders were tested against T6, PTPN13_1, Q12923 (assay: holdup assay). Details: plain residues with an end cap or a label only (N-terminal biotin on a linker: ado-ado).
T6 sequence (Q12923 1088-1188, limits assumed, looked up): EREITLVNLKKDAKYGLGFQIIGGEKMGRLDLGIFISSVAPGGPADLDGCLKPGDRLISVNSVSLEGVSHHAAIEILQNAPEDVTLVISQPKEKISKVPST
Parameters: key: below the threshold = too weak to quantify, mostly under pKd 3.1 to 4
In the case of NRVDSKETEC [ADAM17, P78536], the pKd is reported as “below the threshold”.
For LDKESFLTWL [YAP1, P46937], the pKd was “below the threshold”.

What follows are binders tested against MAGI1_2, Q96QZ7 (assay: holdup assay). Details: plain residues with an end cap or a label only (N-terminal biotin on a linker: ado-ado).
Sequence of MAGI1_2, Q96QZ7 (Q96QZ7 456-580): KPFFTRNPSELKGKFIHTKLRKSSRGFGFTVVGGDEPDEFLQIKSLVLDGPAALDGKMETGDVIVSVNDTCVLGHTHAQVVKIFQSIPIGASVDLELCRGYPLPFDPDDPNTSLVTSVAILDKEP
Parameters: key: below the threshold = too weak to quantify, mostly under pKd 3.1 to 4
For NRVDSKETEC [ADAM17, P78536], the pKd was “below the threshold”.
Work on LDKESFLTWL [YAP1, P46937] yielded a pKd of 3.49.

The binders below were run against PTPN3, P26045 (assay: holdup assay). Details: plain residues with an end cap or a label only (N-terminal biotin on a linker: ado-ado).
Sequence of PTPN3, P26045 (P26045 505-587): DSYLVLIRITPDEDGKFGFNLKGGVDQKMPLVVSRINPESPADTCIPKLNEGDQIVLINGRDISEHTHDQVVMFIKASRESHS
Parameters: key: below the threshold = too weak to quantify, mostly under pKd 3.1 to 4
NRVDSKETEC [ADAM17, P78536] showed a pKd of 4.98.
LDKESFLTWL [YAP1, P46937] gave a pKd of 4.62.

These binders were tested against T7, DLG3_1, Q92796 (assay: holdup assay). Details: plain residues with an end cap or a label only (N-terminal biotin on a linker: ado-ado).
T7 sequence (Q92796 125-227, limits assumed, looked up): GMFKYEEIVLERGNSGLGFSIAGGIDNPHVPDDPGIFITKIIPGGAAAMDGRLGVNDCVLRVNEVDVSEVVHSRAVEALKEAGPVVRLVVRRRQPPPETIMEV
Parameters: key: below the threshold = too weak to quantify, mostly under pKd 3.1 to 4
For NRVDSKETEC [ADAM17, P78536], the pKd was 3.77.
LDKESFLTWL [YAP1, P46937] was tested, and the pKd was “below the threshold”.

What follows are binders tested against NHERF4_1, Q86UT5-2 (assay: holdup assay). Details: plain residues with an end cap or a label only (N-terminal biotin on a linker: ado-ado).
Sequence of NHERF4_1, Q86UT5-2 (Q86UT5 other isoform, or with tags, fused parts or gaps): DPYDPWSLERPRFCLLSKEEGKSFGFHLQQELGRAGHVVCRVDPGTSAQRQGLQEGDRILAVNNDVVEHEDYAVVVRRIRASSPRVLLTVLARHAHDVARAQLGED
Parameters: key: below the threshold = too weak to quantify, mostly under pKd 3.1 to 4
Binder NRVDSKETEC [ADAM17, P78536] has a pKd of 3.68.
In the case of LDKESFLTWL [YAP1, P46937], the pKd is reported as 4.15.

The binders below were run against T8, RHPN1, Q8TCX5 (assay: holdup assay). Details: plain residues with an end cap or a label only (N-terminal biotin on a linker: ado-ado).
T8 sequence (Q8TCX5 508-602, limits assumed, looked up): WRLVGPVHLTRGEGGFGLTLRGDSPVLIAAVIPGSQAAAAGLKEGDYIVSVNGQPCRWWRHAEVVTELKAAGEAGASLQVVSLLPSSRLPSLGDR
Parameters: key: below the threshold = too weak to quantify, mostly under pKd 3.1 to 4
In the case of NRVDSKETEC [ADAM17, P78536], the pKd is reported as “below the threshold”.
In the case of LDKESFLTWL [YAP1, P46937], the pKd is reported as 4.7.

Each binder was assayed against T9, SNTG1, Q9NSN8 (assay: holdup assay). Details: plain residues with an end cap or a label only (N-terminal biotin on a linker: ado-ado).
T9 sequence (Q9NSN8 52-150, limits assumed, looked up): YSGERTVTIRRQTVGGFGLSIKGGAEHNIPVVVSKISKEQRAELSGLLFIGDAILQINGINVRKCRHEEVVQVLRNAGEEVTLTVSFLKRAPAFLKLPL
Parameters: key: below the threshold = too weak to quantify, mostly under pKd 3.1 to 4
NRVDSKETEC [ADAM17, P78536] gave a pKd of 3.63.
LDKESFLTWL [YAP1, P46937] was tested, and the pKd was “below the threshold”.

What follows are binders tested against GORASP2, Q9H8Y8 (assay: holdup assay). Details: plain residues with an end cap or a label only (N-terminal biotin on a linker: ado-ado).
Parameters: key: below the threshold = too weak to quantify, mostly under pKd 3.1 to 4
For NRVDSKETEC [ADAM17, P78536], the pKd was “below the threshold”.
For LDKESFLTWL [YAP1, P46937], the pKd was 4.84.

Each binder was assayed against T10, MPDZ_5, O75970 (assay: holdup assay). Details: plain residues with an end cap or a label only (N-terminal biotin on a linker: ado-ado).
T10 sequence (O75970 695-796, limits assumed, looked up): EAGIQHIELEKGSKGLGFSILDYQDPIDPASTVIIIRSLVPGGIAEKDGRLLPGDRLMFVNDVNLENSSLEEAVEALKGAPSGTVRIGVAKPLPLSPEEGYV
Parameters: key: below the threshold = too weak to quantify, mostly under pKd 3.1 to 4
In the case of NRVDSKETEC [ADAM17, P78536], the pKd is reported as “below the threshold”.
With LDKESFLTWL [YAP1, P46937] the pKd was “below the threshold”.

The binders below were run against Inadl_10, Q8NI35 (assay: holdup assay). Details: plain residues with an end cap or a label only (N-terminal biotin on a linker: ado-ado).
Sequence of Inadl_10, Q8NI35 (Q8NI35 1673-1763): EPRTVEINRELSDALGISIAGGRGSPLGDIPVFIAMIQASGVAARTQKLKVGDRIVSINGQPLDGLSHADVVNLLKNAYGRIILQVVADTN
Parameters: key: below the threshold = too weak to quantify, mostly under pKd 3.1 to 4
NRVDSKETEC [ADAM17, P78536] was tested, and the pKd was “below the threshold”.
LDKESFLTWL [YAP1, P46937] showed a pKd of 5.45.

What follows are binders tested against T11, NHERF3_3, Q5T2W1 (assay: holdup assay). Details: plain residues with an end cap or a label only (N-terminal biotin on a linker: ado-ado).
T11 sequence (Q5T2W1 238-333, limits assumed, looked up): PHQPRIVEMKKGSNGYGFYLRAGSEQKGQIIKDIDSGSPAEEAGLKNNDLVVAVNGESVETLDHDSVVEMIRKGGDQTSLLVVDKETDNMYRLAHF
Parameters: key: below the threshold = too weak to quantify, mostly under pKd 3.1 to 4
In the case of NRVDSKETEC [ADAM17, P78536], the pKd is reported as “below the threshold”.
Work on LDKESFLTWL [YAP1, P46937] yielded a pKd of 4.15.

Each binder was assayed against Inadl_9, Q8NI35 (assay: holdup assay). Details: plain residues with an end cap or a label only (N-terminal biotin on a linker: ado-ado).
Sequence of Inadl_9, Q8NI35 (Q8NI35 1530-1615): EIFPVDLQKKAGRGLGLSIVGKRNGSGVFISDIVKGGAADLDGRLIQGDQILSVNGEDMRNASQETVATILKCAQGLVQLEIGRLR
Parameters: key: below the threshold = too weak to quantify, mostly under pKd 3.1 to 4
NRVDSKETEC [ADAM17, P78536] was tested, and the pKd was “below the threshold”.
Binder LDKESFLTWL [YAP1, P46937] has a pKd of 3.99.
